Data on twelve sequences can be found in the DeepSol protein solubility set.

The data set is described as follows: soluble on expression in E. coli; label from the status in PepcDB or PDB records.
For “PDGDFVDLAWSEDPHQARHKPRLVVFHGLEGSLHSPYAHGLIHAAMQRGWLGVVMHFRGCSGEPNRNHRIYHSGETEDGTWFLHWLKREFGPAPTAAVGYSLGGNMLGCLLAEEGDRCPLDAAVIVSAPFMLEACSYHMDKGFSRVYQRYLLNLLKANASRKLKAYPGSLPVDLRQLKGMRRIREFDDMITAKIHGFADALDYYRQCSAMPRLSDITKPTLIIHAKDDPFMDHHSIPPQEQLPANVEYQLTEQGGHVGFVSGTLRKPEMWLERRIPDWLNRWLE”, the “soluble on expression in E. coli” value is reported as “not soluble”.
To “PDVKFLEGRYCSVEHIDARKHLNDIIDFYWKNAVPSDWTYMFDQPFETAEAVQERLQDYEKSENPYFFAIRDKETDKVLGTFSLMRIDPKNRVLEMGRVIYAPALQKTSAATEAQYLVMNYVFENLGYRRYEWKCDHLNQSSGNAAKRLGFTYEGTFRKHVVYKGRTRDTDWFSVIDQDWPKLKKRFENWLSPKNF” belongs “not soluble”.
To “PETLVKVKDAEDQLCRTSHRPCRVGYIELDLNSGKILESFRPEERFPMMSTFKVLLCGAVLSRIDAGQEQLGRRIHYSQNDLVKYSPVTEKHLTDGMTVRELCSAAITMSDNTAANLLLTTIGGPKELTAFLHNMGDHVTRLDRWEPELNEAIPNDERDTTMPVAMATTLRKLLTGELLTLASRQQLIDWMEADKVAGPLLRSALPAGWFIADKSGAGRRGSRGIIAALGPDGKPSRIVVIYTTGSRKKTDERNRQIAEIGASLIKHWGLEQKLISEEDLNSAVDHHHHHH” belongs “soluble”; to “PFRLHATYDESISRMLDVFEKVDRDIPFNGLPWFFDHAETISPKNIERVRALGGGIAIQDRMAFQGEYFVERYGAKAAEMTPPIQRMLAEGIPVGAGTDATRVSSYNPWTSLYWMVSGRTVGGLELYPQGLSRDTALELYTHGSAWFSSEQGKKGQIKVGQLADLVALSADYFSVEEEAIKWIESLLTVVDGKVVHAAGDFDQLAPPSLPVTPDWSPVAKVPGHWKPGAPLQNQVHQCSGPCAVHAHGHQKARMSNVPVSDFQGFWGAFGCSCFA”, “not soluble”; to “PKFHQAFAMINDAISDQSTFRLSCNEALIHRITPTNTISICADTDLPSLLNDLRLKQIDLIISPTTIHNPSFISESVFEEPMVVICRQDHPRIAGKIEQERFYSEKHCRFVGDEDFPVSNTEIHQPGLQERDVEMMTTSLSGMMLYVAKHDCLGVLPLSLAQKWQSALNLQVIQTPMLSEPVSYKLIFHKRDESSTSHQRLRAWARDQFATGLNA”, “not soluble”.
The value for “PKKDWLSYVVSSKARNKIKQQLRLQMESSIGVVKELLNRRLKNRKLPFEEAVFTRVVRRKGFKHLTDFYMEIAADRLDVQEVLELYSHELEEE” was “not soluble”; that for “PLEDWPDDVLASLPRGISRHTVRFVNVDGHVFAIKEIGQKAAYHEYKMLRDLNRLGAPSVQPLAVITGRVDATGQPLTPALVTEHLSFSLPYRAVFSQTSVSRSMRPETATR” was “not soluble”.
Turning to “PLGSDGLPLDPRDWTRADVWKWLINMAVSEGLEVTAELPQKFPMNGKALCLMSLDMYLCRVPVGGKMLYRDFRVRLARAMSR”, the “soluble on expression in E. coli” value is “soluble”.
The value for “PNSKLARFHASSGTTGKPTVVGYTHKDIDNWAESLARALTSVGVGKEDILQVSYGYGLFTGGLGAHYGSEKVGATVLPTSSGNTERQLELMKDLGTTSIACTPSYFLYMIETARKEGINIRNDTKLRKGFFGAEPWSEELKRRIEEESGIKAYDIYGTSELSGPLFTECDEQ” was “not soluble”.
To “PPHVKYIKEKEICDYEPSSDAGHFRWYPKGKLIRDLLSDYVYNLVVENGGMPVETPVMYDLQNNAIREHADKFGERQYRFKQGNKDLMLRFAACFGQFMMKKDMYLLPKHMPLKLYELSTYSFRYEQRGELVGLKRLRAFTMPDMHTVCIDMKQAMEAFEDQLWMGLKTGDDFKTPYAIIFRFTEDFFEENKEWFFGMAKEYKQKYGKDAILEILPGRKHYWVGKVDMAVVDSFGRPIENPTVQIDVESAERFGIVVHDGDKKVQPIILHCSPTGSVERVLCGLLEN” belongs “not soluble”; to “PQEVESYVHRIGRTGRAGKEGTAITFITPQEYRRLLQIQKAVKKEIKKEKLPDVKDVIQAKKFRIIDDIGQILIDNDYDKFKKLAKDLLKMEDAENIVASLLKLSYSDVLDESNYNEISPVKMEDTGKTRLFIAMGRKDGMTPK”, “not soluble”; to “PVDCSVIVVNKQTKDYAESVGRKVRDLGMVVDLIFLNTEVSLSQALEDVSRGGSPFAIVITQQHQIHRSCTVNIMFGTPQEHRNMPQADAMVLVARNYERYKNECREKEREEIARQA”, “soluble”.
